Results reported in patent publication EP0672680A1.

Legend:
[1] = biological target: bovine lung-derived ANP receptor (bovine); experiment: competition radioligand binding: displacement of 125I-rat ANP from bovine lung membrane fraction, filter assay
[2] = biological target: BK receptor derived from guinea pig ilea (guinea pig); experiment: competition radioligand binding: inhibition of 3H-BK (200 pM) binding to guinea pig ileum membrane fraction; test compound at 10^-7 M
[3] = biological target: BK receptor derived from guinea pig ilea (guinea pig); experiment: competition radioligand binding: inhibition of 3H-BK (200 pM) binding to guinea pig ileum membrane fraction; test compound at 10^-8 M

bovine lung-derived ANP receptor (bovine), sequence (P10730 42-537): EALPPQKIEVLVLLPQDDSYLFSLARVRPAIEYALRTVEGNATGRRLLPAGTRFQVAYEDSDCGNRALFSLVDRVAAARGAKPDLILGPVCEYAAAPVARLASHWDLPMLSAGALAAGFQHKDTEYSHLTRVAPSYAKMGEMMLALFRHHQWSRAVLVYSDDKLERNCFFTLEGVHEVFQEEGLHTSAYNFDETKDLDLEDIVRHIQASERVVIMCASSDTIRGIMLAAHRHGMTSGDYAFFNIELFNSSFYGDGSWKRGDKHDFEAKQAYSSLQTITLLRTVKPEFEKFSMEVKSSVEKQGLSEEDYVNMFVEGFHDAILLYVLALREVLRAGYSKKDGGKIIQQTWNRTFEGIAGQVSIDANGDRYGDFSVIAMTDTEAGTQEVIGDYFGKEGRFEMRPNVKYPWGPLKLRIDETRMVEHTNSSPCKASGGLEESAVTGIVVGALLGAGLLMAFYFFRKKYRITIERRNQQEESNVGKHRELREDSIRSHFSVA
BK receptor derived from guinea pig ilea (guinea pig), sequence (O70526 whole entry): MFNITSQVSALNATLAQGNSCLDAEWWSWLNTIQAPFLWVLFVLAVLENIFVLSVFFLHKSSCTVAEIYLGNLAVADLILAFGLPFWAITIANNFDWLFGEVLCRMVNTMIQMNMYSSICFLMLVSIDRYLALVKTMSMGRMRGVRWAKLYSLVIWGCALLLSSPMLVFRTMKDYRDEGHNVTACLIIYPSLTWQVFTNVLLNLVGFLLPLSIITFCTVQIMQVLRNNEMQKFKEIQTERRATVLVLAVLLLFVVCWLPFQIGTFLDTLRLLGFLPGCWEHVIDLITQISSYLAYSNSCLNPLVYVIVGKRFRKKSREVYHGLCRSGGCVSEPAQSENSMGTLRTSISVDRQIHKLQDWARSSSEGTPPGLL

Row | Substance | IC50 [1] | Percentage inhibition (%) [2] | Percentage inhibition (%) [3]
1 | compound (g) (H-Phe-Gly-Gly-Arg-Ile-Asp-Arg-Ile-NH2) (peptide) | 3.5 nM | – | –
2 | compound (h) (H-Ala-Phe-Gly-Gly-Arg-Ile-Asp-Arg-Ile-Gly-Ala-Ala-NH2) (peptide) | 2.5 nM | – | –
3 | compound (k) (H-Phe-Gly-Gly-Arg-(N-Me)Ile-Asp-Arg-Ile-NH2) (peptide) | 21 nM | – | –
4 | compound (m) (H-D-Arg-Arg-Pro-Hyp-Gly-Phe-Ser-D-Phe-Leu-Arg-OH) (peptide) | – | 68% | 20%
